Reference: paper PMC10093973, “The RNA-Binding and RNA-Melting Activities of the Multifunctional Protein Nucleobindin 1” (International Journal of Molecular Sciences, 2023)

T1: NUCB1 CaBD (Homo sapiens) (UniProt Q02818)
T1 sequence: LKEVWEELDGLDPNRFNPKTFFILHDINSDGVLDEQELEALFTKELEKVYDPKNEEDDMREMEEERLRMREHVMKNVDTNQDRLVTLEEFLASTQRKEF

T2: NUCB1 ΔN (Homo sapiens) (UniProt Q02818)
T2 sequence: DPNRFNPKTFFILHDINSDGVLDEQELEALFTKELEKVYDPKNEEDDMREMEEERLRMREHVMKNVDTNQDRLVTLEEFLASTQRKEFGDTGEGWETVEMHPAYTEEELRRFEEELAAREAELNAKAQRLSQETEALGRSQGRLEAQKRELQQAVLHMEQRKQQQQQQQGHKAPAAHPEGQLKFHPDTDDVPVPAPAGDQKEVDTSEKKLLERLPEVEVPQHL

T3: NUCB1 ΔZ (Homo sapiens) (UniProt Q02818)
T3 sequence: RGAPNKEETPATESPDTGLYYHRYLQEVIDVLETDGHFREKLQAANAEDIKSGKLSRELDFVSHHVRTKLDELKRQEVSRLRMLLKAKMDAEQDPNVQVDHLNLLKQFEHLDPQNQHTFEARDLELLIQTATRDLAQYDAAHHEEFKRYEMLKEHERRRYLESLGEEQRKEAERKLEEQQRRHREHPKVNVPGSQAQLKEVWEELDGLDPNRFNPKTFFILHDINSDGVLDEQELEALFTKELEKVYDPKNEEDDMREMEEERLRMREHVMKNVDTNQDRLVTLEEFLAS

T4: NUCB1 ΔZ (Homo sapiens, UniProt Q02818 31-320)
T4 sequence: T3 sequence

T5: NUCB1 ΔN (Homo sapiens, UniProt Q02818 239-461)
T5 sequence: T2 sequence

T6: NUCB1 CaBD (Homo sapiens, UniProt Q02818 228-326)
T6 sequence: T1 sequence

B1: Nucleobindin 1 (NUCB1) lacking the signal peptide (1-30 aa) (natural protein, human, UniProt Q02818 31-461, looked up)
chain: RGAPNKEETPATESPDTGLYYHRYLQEVIDVLETDGHFREKLQAANAEDIKSGKLSRELDFVSHHVRTKLDELKRQEVSRLRMLLKAKMDAEQDPNVQVDHLNLLKQFEHLDPQNQHTFEARDLELLIQTATRDLAQYDAAHHEEFKRYEMLKEHERRRYLESLGEEQRKEAERKLEEQQRRHREHPKVNVPGSQAQLKEVWEELDGLDPNRFNPKTFFILHDINSDGVLDEQELEALFTKELEKVYDPKNEEDDMREMEEERLRMREHVMKNVDTNQDRLVTLEEFLASTQRKEFGDTGEGWETVEMHPAYTEEELRRFEEELAAREAELNAKAQRLSQETEALGRSQGRLEAQKRELQQAVLHMEQRKQQQQQQQGHKAPAAHPEGQLKFHPDTDDVPVPAPAGDQKEVDTSEKKLLERLPEVEVPQHL
notes: the C-terminal limit 461 is the one printed for NUCB1 ΔN, which was made with the same reverse primer; Cloned in pET-28a between EcoR I and Hind III from a HEK293T cDNA library; No removal of the His6 tag is described; also called Calnuc; intact NUCB1; source: E. coli BL21(DE3)/pRARE, purified (Ni-NTA agarose; analysed by SEC on Superdex 200)
B2: NUCB1 ΔN (239-461 aa) (domain or fragment, human, UniProt Q02818 239-461, looked up)
chain: T2 sequence
notes: Cloned in pET-28a; source: E. coli BL21(DE3)/pRARE, purified (Ni-NTA agarose; analysed by SEC on Superdex 200)

Experiments:
[1] = molecular target: T1, NUCB1 CaBD (Homo sapiens); test: SPR; details: SPR: 50 mM Tris-HCl pH 8.0, 200 mM NaCl, 0.1% Tween-20, with or without 2 mM CaCl2, 25 °C; 5'-biotinylated RNA immobilized, NUCB1 as analyte, 1:1 model
NUCB1 ΔN (Homo sapiens) = molecular target: T2, NUCB1 ΔN (Homo sapiens); test: SPR; details: SPR: 50 mM Tris-HCl pH 8.0, 200 mM NaCl, 0.1% Tween-20, with or without 2 mM CaCl2, 25 °C; 5'-biotinylated RNA immobilized, NUCB1 as analyte, 1:1 model
NUCB1 ΔZ (Homo sapiens) = molecular target: T3, NUCB1 ΔZ (Homo sapiens); test: SPR; details: SPR: 50 mM Tris-HCl pH 8.0, 200 mM NaCl, 0.1% Tween-20, with or without 2 mM CaCl2, 25 °C; 5'-biotinylated RNA immobilized, NUCB1 as analyte, 1:1 model
[2] = molecular target: the molecule itself; test: SEC; size-exclusion chromatography of the final preparations on Superdex 200 in 150 mM NaCl, 50 mM Tris-HCl (pH 8.0); oligomeric state of each protein
NUCB1 ΔZ = molecular target: T4, NUCB1 ΔZ; test: SPR; SPR: 50 mM Tris-HCl pH 8.0, 200 mM NaCl, 0.1% Tween-20, with or without 2 mM CaCl2, 25 °C; 5'-biotinylated RNA immobilized, NUCB1 as analyte, 1:1 model; details: protein: recombinant; tags: N-terminal His6; label: 5'-biotin
NUCB1 ΔN = molecular target: T5, NUCB1 ΔN; test: as above; details: protein: recombinant; tags: N-terminal His6; label: 5'-biotin
NUCB1 CaBD = molecular target: T6, NUCB1 CaBD; test: as above; details: protein: recombinant; tags: N-terminal His6; label: 5'-biotin

| Molecule | Kd [1] | Kd (NUCB1 ΔN (Homo sapiens)) | Kd (NUCB1 ΔZ (Homo sapiens)) | stoichiometry N [2] | further results |
| --- | --- | --- | --- | --- | --- |
| GUGGUCAGUCGAGUGGAAAAAAAAAAAAAAAAAA [A-rich] | 5.7 nM | 1.4 nM | 0.3 nM |  |  |
| GUGGUCAGUCGAGUGGGGGGGG [G-rich] | 18.2 nM | 5.3 nM | 3.1 nM |  |  |
| GUGGUCAGUCGAGUGGUUUUUUUUUUUUUUUUUU [U-rich] | 0.2 nM | 1.7 nM | 0.4 nM |  |  |
| B1 |  |  |  | 2 |  |
| GUGGUCAGUCGAGUGGUAACACUGUCUGGUAACGAUGU (ssRNA) [miR-200a-3p] |  |  |  |  | Kd (NUCB1 ΔZ): 0.3 ± 0.01 nM; Kd (NUCB1 ΔN): 0.6 ± 0.09 nM; Kd (NUCB1 CaBD): 5.2 ± 0.2 nM |
| B2 |  |  |  | 2 |  |
